The values that follow come from patent US20230312742A1 (Y MABS THERAPEUTICS, published 2023).

Sequences and labels used below:
B1: Chimeric (chimeric AT13/5 anti-CD38 IgG) (antibody, V domains shown)
VH: QVQLKQSGPGLVHPSQSLSITCTVSGFSLTSYGVHWVRQSPGKGLEWLGVMWRGGSTDYNAAFMSRLNITKDNSKRQVFFKMNSLQADDTAIYYCAKSMITTGFVMDSWGQGTSVTVSS
VL: DIQLTQSPSSFSVSLGDRVTITCKASEDIYNRLTWYQQKPGNAPRLLISGATSLETGVPSRFSGSGSGKDYTLSITSLQTEDVATYYCQQYWSNPYTFGGGTKLEIR
notes: IgG format, captured on anti-human Fc; chimeric VL + chimeric VH (murine AT13/5 variable regions)
B2: L1H1 (antibody, V domains shown)
VH: QVQLQESGPGLVKPSETLSLTCTVSGFSLTSYGVHWIRQPPGKGLEWIGVMWRGGSTDYNPSLKSRVTISKDNSKRQFSLKLSSVTAADTAVYYCAKSMITTGFVMDSWGQGTLVTVSS
VL: DIQMTQSPSSLSASVGDRVTITCRASEDIYNRLTWYQQKPGKAPKLLLSGATSLETGVPSRFSGSGSGKDYTLTISSLQPEDFATYYCQQYWSNPYTFGGGTKVEIK
notes: Humanized AT13/5 IgG, VL1 + VH1
B3: L2H6 (antibody, V domains shown)
VH: B2 VH with I48L, D58N, N73T, R76N
VL: B2 VL with T34A, K69T
notes: Humanized AT13/5 IgG, VL2 + VH6
B4: L2H2 (antibody, V domains shown)
VH: B2 VH with I37V, L82M
VL: B2 VL with T34A, K69T
notes: Humanized AT13/5 IgG, VL2 + VH2
B5: L4H4 (antibody, V domains shown)
VH: B2 VH with K71V, N73T, F78V
VL: B2 VL with S49Y
notes: Humanized AT13/5 IgG, VL4 + VH4
B6: L3H1 (antibody, V domains shown)
VH: B2 VH
VL: B2 VL with K69T
notes: Humanized AT13/5 IgG, VL3 + VH1
B7: L2H7 (antibody, V domains shown)
VH: B2 VH with Q5K, E6Q, D58N, V67L, K71V, N73T, R76N
VL: B2 VL with T34A, K69T
notes: Humanized AT13/5 IgG, VL2 + VH7
B8: L4H6 (antibody, V domains shown)
VH: B2 VH with I48L, D58N, N73T, R76N
VL: B2 VL with S49Y
notes: Humanized AT13/5 IgG, VL4 + VH6
B9: L1H5 (antibody, V domains shown)
VH: B2 VH with K71V, N73T, R76N, L80F, V92I
VL: B2 VL
notes: Humanized AT13/5 IgG, VL1 + VH5
B10: L3H7 (antibody, V domains shown)
VH: B2 VH with Q5K, E6Q, D58N, V67L, K71V, N73T, R76N
VL: B2 VL with K69T
notes: Humanized AT13/5 IgG, VL3 + VH7
B11: L2H3 (antibody, V domains shown)
VH: B2 VH with L20I, N73T, R76N, V85L
VL: B2 VL with T34A, K69T
notes: Humanized AT13/5 IgG, VL2 + VH3
B12: L2H1 (antibody, V domains shown)
VH: B2 VH
VL: B2 VL with T34A, K69T
notes: Humanized AT13/5 IgG, VL2 + VH1
B13: L4H7 (antibody, V domains shown)
VH: B2 VH with Q5K, E6Q, D58N, V67L, K71V, N73T, R76N
VL: B2 VL with S49Y
notes: Humanized AT13/5 IgG, VL4 + VH7
B14: L1H2 (antibody, V domains shown)
VH: B2 VH with I37V, L82M
VL: B2 VL
notes: Humanized AT13/5 IgG, VL1 + VH2
B15: L3H6 (antibody, V domains shown)
VH: B2 VH with I48L, D58N, N73T, R76N
VL: B2 VL with K69T
notes: Humanized AT13/5 IgG, VL3 + VH6
B16: L4H3 (antibody, V domains shown)
VH: B2 VH with L20I, N73T, R76N, V85L
VL: B2 VL with S49Y
notes: Humanized AT13/5 IgG, VL4 + VH3
B17: L4H5 (antibody, V domains shown)
VH: B2 VH with K71V, N73T, R76N, L80F, V92I
VL: B2 VL with S49Y
notes: Humanized AT13/5 IgG, VL4 + VH5
B18: L3H3 (antibody, V domains shown)
VH: B2 VH with L20I, N73T, R76N, V85L
VL: B2 VL with K69T
notes: Humanized AT13/5 IgG, VL3 + VH3
B19: L1H4 (antibody, V domains shown)
VH: B2 VH with K71V, N73T, F78V
VL: B2 VL
notes: Humanized AT13/5 IgG, VL1 + VH4
B20: L4H1 (antibody, V domains shown)
VH: B2 VH
VL: B2 VL with S49Y
notes: Humanized AT13/5 IgG, VL4 + VH1
B21: L1H7 (antibody, V domains shown)
VH: B2 VH with Q5K, E6Q, D58N, V67L, K71V, N73T, R76N
VL: B2 VL
notes: Humanized AT13/5 IgG, VL1 + VH7
B22: L4H2 (antibody, V domains shown)
VH: B2 VH with I37V, L82M
VL: B2 VL with S49Y
notes: Humanized AT13/5 IgG, VL4 + VH2
B23: L1H6 (antibody, V domains shown)
VH: B2 VH with I48L, D58N, N73T, R76N
VL: B2 VL
notes: Humanized AT13/5 IgG, VL1 + VH6
B24: L3H2 (antibody, V domains shown)
VH: B2 VH with I37V, L82M
VL: B2 VL with K69T
notes: Humanized AT13/5 IgG, VL3 + VH2
B25: L3H4 (antibody, V domains shown)
VH: B2 VH with K71V, N73T, F78V
VL: B2 VL with K69T
notes: Humanized AT13/5 IgG, VL3 + VH4
B26: L1H3 (antibody, V domains shown)
VH: B2 VH with L20I, N73T, R76N, V85L
VL: B2 VL
notes: Humanized AT13/5 IgG, VL1 + VH3
B27: 8DC3OK (CD3xCD38 bispecific antibody, IgG-L-scFv format, humanized VL5 and VH8) (bispecific antibody)
light: DIQLTQSPSSLSASVGDRVTITCKASEDIYNRLTWYQQKPGKAPKLLISGATSLETGVPSRFSGSGSGKDYTFTISSLQPEDFATYYCQQYWSNPYTFGQGTKLEIKRTVAAPSVFIFPPSDEQLKSGTASVVCLLNNFYPREAKVQWKVDNALQSGNSQESVTEQDSKDSTYSLSSTLTLSKADYEKHKVYACEVTHQGLSSPVTKSFNRGECGGGGSGGGGSGGGGSGGGGSQVQLVQSGGGVVQPGRSLRLSCKASGYTFTRYTMHWVRQAPGKCLEWIGYINPSRGYTNYNQKFKDRFTISRDNSKNTAFLQMDSLRPEDTGVYFCARYYDDHYSLDYWGQGTPVTVSSGGGGSGGGGSGGGGSGGGGSGGGGSGGGGSDIQMTQSPSSLSASVGDRVTITCSASSSVSYMNWYQQTPGKAPKRWIYDTSKLASGVPSRFSGSGSGTDYTFTISSLQPEDIATYYCQQWSSNPFTFGCGTKLQITR
heavy: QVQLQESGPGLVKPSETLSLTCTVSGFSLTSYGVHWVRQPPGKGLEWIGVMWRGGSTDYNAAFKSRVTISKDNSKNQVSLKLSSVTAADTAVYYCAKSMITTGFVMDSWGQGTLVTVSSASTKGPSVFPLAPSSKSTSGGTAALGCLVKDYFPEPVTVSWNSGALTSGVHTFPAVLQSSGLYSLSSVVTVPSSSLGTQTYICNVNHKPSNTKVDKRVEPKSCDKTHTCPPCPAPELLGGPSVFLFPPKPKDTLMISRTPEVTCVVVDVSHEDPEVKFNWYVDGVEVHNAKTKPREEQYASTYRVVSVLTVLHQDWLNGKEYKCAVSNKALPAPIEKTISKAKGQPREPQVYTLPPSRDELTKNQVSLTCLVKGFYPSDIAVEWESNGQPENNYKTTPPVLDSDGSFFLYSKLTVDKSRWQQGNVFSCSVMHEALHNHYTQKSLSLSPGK
notes: Light chain: anti-CD38 VL-CL-(G4S)4-huOKT3 VH-(G4S)6-huOKT3 VL
B28: 8DC1OK (CD3xCD38 bispecific antibody, IgG-L-scFv format, chimeric AT13/5 VL and VH) (bispecific antibody)
light: DIQLTQSPSSFSVSLGDRVTITCKASEDIYNRLTWYQQKPGNAPRLLISGATSLETGVPSRFSGSGSGKDYTLSITSLQTEDVATYYCQQYWSNPYTFGGGTKLEIRRTVAAPSVFIFPPSDEQLKSGTASVVCLLNNFYPREAKVQWKVDNALQSGNSQESVTEQDSKDSTYSLSSTLTLSKADYEKHKVYACEVTHQGLSSPVTKSFNRGECGGGGSGGGGSGGGGSGGGGSQVQLVQSGGGVVQPGRSLRLSCKASGYTFTRYTMHWVRQAPGKCLEWIGYINPSRGYTNYNQKFKDRFTISRDNSKNTAFLQMDSLRPEDTGVYFCARYYDDHYSLDYWGQGTPVTVSSGGGGSGGGGSGGGGSGGGGSGGGGSGGGGSDIQMTQSPSSLSASVGDRVTITCSASSSVSYMNWYQQTPGKAPKRWIYDTSKLASGVPSRFSGSGSGTDYTFTISSLQPEDIATYYCQQWSSNPFTFGCGTKLQITR
heavy: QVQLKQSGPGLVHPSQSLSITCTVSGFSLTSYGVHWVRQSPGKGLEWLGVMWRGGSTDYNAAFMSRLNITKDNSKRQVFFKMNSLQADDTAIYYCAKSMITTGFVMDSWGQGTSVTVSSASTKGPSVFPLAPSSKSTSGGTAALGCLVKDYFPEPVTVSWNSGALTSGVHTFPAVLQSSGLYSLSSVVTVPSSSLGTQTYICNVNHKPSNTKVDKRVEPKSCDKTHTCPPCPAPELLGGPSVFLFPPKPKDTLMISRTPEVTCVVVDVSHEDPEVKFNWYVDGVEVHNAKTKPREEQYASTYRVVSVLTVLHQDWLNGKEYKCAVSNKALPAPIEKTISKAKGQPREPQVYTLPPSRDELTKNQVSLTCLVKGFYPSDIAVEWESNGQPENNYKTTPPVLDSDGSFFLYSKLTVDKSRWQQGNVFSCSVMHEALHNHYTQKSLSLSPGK
notes: Light chain: anti-CD38 VL-CL-(G4S)4-huOKT3 VH-(G4S)6-huOKT3 VL; also called the chimeric antibody 8DC1OK

Where a chain is given by its changes, count along the chain named. Names and notes keep the numbering of the source.

One test addresses T1, human CD38 antigen (recombinant human CD38 protein) (human, UniProt P28907 43-300, limits assumed). Briefly: SPR, IgG captured on anti-human Fc, human CD38 in solution.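 Further: humanized IgG captured on an amine-coupled anti-human Fc HC30M chip, with human CD38 injected as a dilution series from 1000 nM downward.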 Background: SPR reads the build-up and loss of mass on a sensor chip optically.
Take B1: the dissociation constant Kd amounted to 2.8 nM.

With B2, the Kd was found to be 870 nM.

As to B3, the Kd was found to be 1900 nM.

For the molecule B4, the Kd was 910 nM.

On to B5, for which the Kd was 140 nM.

As for B6, the Kd amounted to 650 nM.

Turning to B7, the Kd was 390 nM.

B8: the Kd was determined as 580 nM.

B9: the Kd amounted to 1800 nM.

As for B10, the Kd was 100 nM.

For the molecule B11, the Kd came out at 830 nM.

Regarding B12, the Kd amounted to 950 nM.

For the molecule B13, the Kd stood at 870 nM.

On to B14, for which the Kd is 400 nM.

Turning to B15, the Kd was determined as 1300 nM.

On to B16, for which the Kd is 200 nM.

For the molecule B17, the Kd was 320 nM.

Regarding B18, the Kd came out at 1200 nM.

Take B19: the Kd turned out to be 300 nM.

For the molecule B20, the Kd was 100 nM.

B21: the Kd was 8500 nM.

For B22, the Kd came to 250 nM.

In the case of B23, the Kd is 31 nM.

As to B24, the Kd turned out to be 460 nM.

As for B25, the Kd was found to be 1200 nM.

B26: the dissociation constant (Kd) is 810 nM.

The target of the next test is T2, CD38 on CD38(+) cancer cells (RPMI8226, Raji, Daudi) (UniProt P28907 1-300, limits assumed).
T2 construct: whole, on cells; Endogenous CD38 on tumour cell lines; also called CD38(+) tumor cells; CD38(+) Raji cells
Briefly: flow cytometry on Daudi cells, goat anti-human IgG fluorochrome-conjugated secondary antibody.
As to B27, the “EC50 (read off the curve)” value is about 0.1 µg/mL.

For another test, the target named is T2, CD38 on CD38(+) cancer cells (RPMI8226, …). Briefly: flow cytometry on RPMI8226 cells.
As to B27, the EC50 turned out to be 0.167 µg/mL and the “fold weaker EC50 than the chimeric antibody 8DC1OK” value is about 2 fold.

Molecule B28 returned an EC50 of 0.076 µg/mL.

The target of a further test is T1, human CD38 antigen (recombinant human …). As to the kind of experiment: SPR, BsAb (1 µg/ml) captured on anti-human Fc chip, human CD38 in solution; average, N=6.
Regarding B27, the Kd was 8.8 nM, the koff worked out at 0.0018 s⁻¹ and the kon came out at 210000 M⁻¹ s⁻¹.

On to B28, for which the Kd amounted to 1.6 nM, the off-rate (koff) came to 0.00076 s⁻¹ and the kon was 470000 M⁻¹ s⁻¹.

The term Kd denotes the equilibrium constant for the complex coming apart. Usually EC50 (read off the curve) stands for the concentration at which the effect is half-maximal. A low value points to an effect from little substance. As usually defined, the EC50 is the concentration at which the effect is half-maximal. Lower therefore signals greater potency. A word on the koff: it is the rate constant with which the complex falls apart. One may read the kon as the second-order rate constant of association.
